Biological target: Murine PD-1 fusion protein (mouse) (UniProt Q02242)
Assay: SPR (BIAcore 3000), murine PD-1 fusion immobilized on CM5 chip, antibody 25 nM to 500 nM in flow

Sequence of Murine PD-1 fusion protein (mouse) (Q02242 25-167): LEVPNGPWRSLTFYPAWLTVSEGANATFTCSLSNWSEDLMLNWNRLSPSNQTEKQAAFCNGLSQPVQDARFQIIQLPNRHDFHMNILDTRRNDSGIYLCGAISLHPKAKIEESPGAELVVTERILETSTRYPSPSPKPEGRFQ

Ka: 2.6e+06 M⁻¹
Kd: 380 nM
B1: Anti-mouse PD1 antibody J43 (antibody, from another filing, V domains shown)
VH: EVRLLESGGGLVKPEGSLKLSCVASGFTFSDYFMSWVRQAPGKGLEWVAHIYTKSYNYATYYSGSVKGRFTISRDDSRSMVYLQMNNLRTEDTATYYCTRDGSGYPSLDFWGQGTQVTVSS
VL: YELTQPPSASVNVGETVKITCSGDQLPKYFADWFHQRSDQTILQVIYDDNKRPSGIPERISGSSSGTTATLTIRDVRAEDEGDYYCFSGYVDSDSKLYVFGSGTQLTVLG

— patent US20040213795A1
